Patent publication US20100255578A1

Tests used:
[1] = molecular target: H-296, a polypeptide comprising a heparin binding domain and a CS-1 domain of fibronectin (Homo sapiens (Human)) (UniProt P02751); test: ELISA; H-296 coated at 25 ug/mL in 0.2 M acetate buffer pH 5.0; HRP-labeled FNH3-8, ABTS
[2] = molecular target: H-296, a polypeptide comprising a heparin binding domain and a CS-1 domain of fibronectin (Homo sapiens (Human)) (UniProt P02751); test: ELISA as in Example 34; H-296 coated at 6.25 ug/mL in pH 5.6 acetate buffer; HRP-labeled FNH3-8
[3] = molecular target: H296-H296 (modified fibronectin fragment in which two H-296's are connected); test: ELISA as in Example 34; H296-H296 coated at 25 ug/mL in PBS; HRP-labeled FNH3-8
[4] = molecular target: H296-H296-HT; test: ELISA; H296-H296-HT coated at 10 ug/mL; HRP-labeled FNH3-8, ABTS; blank subtracted
Chain of H296-H296-HT (chain, as listed by the source limits assumed): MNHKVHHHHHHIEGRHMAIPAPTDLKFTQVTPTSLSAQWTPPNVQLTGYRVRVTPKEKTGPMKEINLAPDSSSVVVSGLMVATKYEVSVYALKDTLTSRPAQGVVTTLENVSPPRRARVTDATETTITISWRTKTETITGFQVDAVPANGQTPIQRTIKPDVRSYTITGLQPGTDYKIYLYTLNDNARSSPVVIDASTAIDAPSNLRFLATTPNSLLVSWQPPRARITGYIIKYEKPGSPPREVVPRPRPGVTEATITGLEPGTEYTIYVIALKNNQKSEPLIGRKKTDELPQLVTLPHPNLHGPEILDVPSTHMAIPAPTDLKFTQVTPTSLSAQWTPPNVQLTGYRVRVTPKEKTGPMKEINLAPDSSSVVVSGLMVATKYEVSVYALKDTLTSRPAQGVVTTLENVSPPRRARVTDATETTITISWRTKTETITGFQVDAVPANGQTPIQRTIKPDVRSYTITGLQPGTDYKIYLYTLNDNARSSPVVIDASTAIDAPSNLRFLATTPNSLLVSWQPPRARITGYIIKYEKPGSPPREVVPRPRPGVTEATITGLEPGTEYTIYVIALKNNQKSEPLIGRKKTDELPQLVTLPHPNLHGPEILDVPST

[5] = molecular target: H296-H271; test: ELISA; H296-H271 coated at 9 ug/mL; HRP-labeled FNH3-8, ABTS; blank subtracted
Chain of H296-H271 (chain, as listed by the source limits assumed): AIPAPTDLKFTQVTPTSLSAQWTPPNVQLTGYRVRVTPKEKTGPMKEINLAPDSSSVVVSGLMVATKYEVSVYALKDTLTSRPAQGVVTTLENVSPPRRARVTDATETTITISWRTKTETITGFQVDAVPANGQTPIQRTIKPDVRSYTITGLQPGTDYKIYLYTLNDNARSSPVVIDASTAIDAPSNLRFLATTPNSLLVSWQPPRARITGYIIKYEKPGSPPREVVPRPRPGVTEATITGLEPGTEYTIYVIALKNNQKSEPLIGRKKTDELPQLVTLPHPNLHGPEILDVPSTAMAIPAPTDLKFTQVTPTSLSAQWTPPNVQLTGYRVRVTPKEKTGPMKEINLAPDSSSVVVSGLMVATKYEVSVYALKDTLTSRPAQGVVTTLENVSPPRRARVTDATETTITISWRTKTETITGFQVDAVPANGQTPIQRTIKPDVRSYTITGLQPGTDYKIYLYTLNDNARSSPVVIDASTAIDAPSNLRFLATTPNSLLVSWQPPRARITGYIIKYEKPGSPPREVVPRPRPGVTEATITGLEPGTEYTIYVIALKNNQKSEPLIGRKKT

[6] = molecular target: H296-H271; test: ELISA; H296-H271 coated at 5 ug/mL; HRP-labeled FNH3-8, ABTS; blank subtracted
[7] = molecular target: H296-H296 (modified fibronectin fragment in which two H-296's are connected); test: ELISA as in Example 34; H296-H296 coated at 1.563 ug/mL in PBS; HRP-labeled FNH3-8
[8] = molecular target: H-296, a polypeptide comprising a heparin binding domain and a CS-1 domain of fibronectin (Homo sapiens (Human)) (UniProt P02751); test: ELISA; H-296 coated at 25 ug/mL in 0.2 M phosphate buffer pH 8.0; HRP-labeled FNH3-8, ABTS
[9] = molecular target: H296-H296-H296-HT; test: ELISA; H296-H296-H296-HT coated at 25 ug/mL; HRP-labeled FNH3-8, ABTS; blank subtracted
Chain of H296-H296-H296-HT (chain, as listed by the source limits assumed): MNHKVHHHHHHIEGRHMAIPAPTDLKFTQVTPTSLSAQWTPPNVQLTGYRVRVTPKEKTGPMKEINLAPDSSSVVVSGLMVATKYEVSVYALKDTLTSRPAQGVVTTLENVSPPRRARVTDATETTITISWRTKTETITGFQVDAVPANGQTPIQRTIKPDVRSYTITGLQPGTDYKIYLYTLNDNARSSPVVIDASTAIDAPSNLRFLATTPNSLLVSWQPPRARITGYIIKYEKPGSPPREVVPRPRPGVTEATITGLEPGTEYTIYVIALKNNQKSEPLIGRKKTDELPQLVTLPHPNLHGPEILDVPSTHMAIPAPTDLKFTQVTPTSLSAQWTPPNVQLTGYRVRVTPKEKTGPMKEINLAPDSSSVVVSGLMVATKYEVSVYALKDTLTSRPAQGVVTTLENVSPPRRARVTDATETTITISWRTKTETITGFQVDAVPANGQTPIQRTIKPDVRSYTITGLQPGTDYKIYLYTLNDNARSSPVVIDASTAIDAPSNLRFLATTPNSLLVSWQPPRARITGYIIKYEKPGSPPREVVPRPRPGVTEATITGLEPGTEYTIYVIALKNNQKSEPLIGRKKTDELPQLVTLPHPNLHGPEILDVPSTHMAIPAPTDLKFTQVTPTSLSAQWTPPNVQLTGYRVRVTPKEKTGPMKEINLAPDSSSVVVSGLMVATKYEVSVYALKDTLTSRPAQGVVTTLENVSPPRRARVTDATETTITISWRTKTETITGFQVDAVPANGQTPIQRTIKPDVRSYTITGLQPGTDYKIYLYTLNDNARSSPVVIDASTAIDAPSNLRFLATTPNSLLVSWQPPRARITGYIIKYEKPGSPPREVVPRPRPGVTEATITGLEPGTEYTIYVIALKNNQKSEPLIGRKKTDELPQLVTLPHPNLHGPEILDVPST

[10] = molecular target: H-296, a polypeptide comprising a heparin binding domain and a CS-1 domain of fibronectin (Homo sapiens (Human)) (UniProt P02751); test: ELISA; H-296 coated at 25 ug/mL in 0.2 M phosphate buffer pH 6.8; HRP-labeled FNH3-8, ABTS
[11] = molecular target: H296-H296-HT; test: ELISA; H296-H296-HT coated at 1 ug/mL; HRP-labeled FNH3-8, ABTS; blank subtracted
[12] = molecular target: H271-H296; test: ELISA; H271-H296 coated at 14 ug/mL; HRP-labeled FNH3-8, ABTS; blank subtracted
Chain of H271-H296 (chain, as listed by the source limits assumed): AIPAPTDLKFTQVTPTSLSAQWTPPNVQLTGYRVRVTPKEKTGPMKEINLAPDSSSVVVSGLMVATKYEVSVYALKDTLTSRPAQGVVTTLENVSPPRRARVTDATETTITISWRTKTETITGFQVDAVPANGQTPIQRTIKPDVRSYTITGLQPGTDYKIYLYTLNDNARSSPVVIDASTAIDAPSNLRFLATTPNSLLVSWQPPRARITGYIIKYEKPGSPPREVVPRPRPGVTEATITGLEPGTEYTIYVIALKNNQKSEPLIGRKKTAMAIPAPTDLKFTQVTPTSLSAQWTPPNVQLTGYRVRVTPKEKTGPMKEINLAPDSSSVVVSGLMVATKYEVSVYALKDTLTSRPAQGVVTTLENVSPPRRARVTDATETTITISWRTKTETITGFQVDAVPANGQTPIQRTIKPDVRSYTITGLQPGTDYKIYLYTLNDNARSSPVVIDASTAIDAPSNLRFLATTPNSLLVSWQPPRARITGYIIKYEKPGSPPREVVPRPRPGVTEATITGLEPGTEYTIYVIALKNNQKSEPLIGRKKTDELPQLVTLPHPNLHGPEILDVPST

[13] = molecular target: H271-H296; test: ELISA; H271-H296 coated at 20 ug/mL; HRP-labeled FNH3-8, ABTS; blank subtracted
[14] = molecular target: H-296, a polypeptide comprising a heparin binding domain and a CS-1 domain of fibronectin (Homo sapiens (Human)) (UniProt P02751); test: ELISA; H-296 coated at 50 ug/mL in 0.2 M acetate buffer pH 5.0; HRP-labeled FNH3-8, ABTS
[15] = molecular target: H-296, a polypeptide comprising a heparin binding domain and a CS-1 domain of fibronectin (Homo sapiens (Human)) (UniProt P02751); test: ELISA; H-296 coated at 25 ug/mL in 0.2 M phosphate buffer pH 6.2; HRP-labeled FNH3-8, ABTS
[16] = molecular target: H296-H296-HT; test: ELISA; H296-H296-HT coated at 25 ug/mL; HRP-labeled FNH3-8, ABTS; blank subtracted
[17] = molecular target: H296-H296-H296-HT; test: ELISA; H296-H296-H296-HT coated at 4 ug/mL; HRP-labeled FNH3-8, ABTS; blank subtracted
[18] = molecular target: H296-H296-H296-HT; test: ELISA; H296-H296-H296-HT coated at 2 ug/mL; HRP-labeled FNH3-8, ABTS; blank subtracted
[19] = molecular target: H296-H271; test: ELISA; H296-H271 coated at 13 ug/mL; HRP-labeled FNH3-8, ABTS; blank subtracted
[20] = molecular target: H296-H296-H296-HT; test: ELISA; H296-H296-H296-HT coated at 10 ug/mL; HRP-labeled FNH3-8, ABTS; blank subtracted
[21] = molecular target: H296-H296-HT; test: ELISA; H296-H296-HT coated at 5 ug/mL; HRP-labeled FNH3-8, ABTS; blank subtracted
[22] = molecular target: CH-296, a polypeptide comprising a cell binding domain, a heparin binding domain and a CS-1 domain of fibronectin (Homo sapiens (Human)) (UniProt P02751); test: ELISA; CH-296 coated at 25 ug/mL; HRP-labeled FNH3-8, ABTS; blank subtracted
[23] = molecular target: H-296, a polypeptide comprising a heparin binding domain and a CS-1 domain of fibronectin (Homo sapiens (Human)) (UniProt P02751); test: ELISA; H-296 coated at 25 ug/mL in 0.2 M phosphate buffer pH 7.4; HRP-labeled FNH3-8, ABTS
[24] = molecular target: H-296, a polypeptide comprising a heparin binding domain and a CS-1 domain of fibronectin (Homo sapiens (Human)) (UniProt P02751); test: ELISA; H-296 coated at 50 ug/mL in 0.2 M acetate buffer pH 4.4; HRP-labeled FNH3-8, ABTS
[25] = molecular target: H296-H296-HT; test: ELISA; H296-H296-HT coated at 3 ug/mL; HRP-labeled FNH3-8, ABTS; blank subtracted
[26] = molecular target: H-296, a polypeptide comprising a heparin binding domain and a CS-1 domain of fibronectin (Homo sapiens (Human)) (UniProt P02751); test: ELISA; H-296 coated at 25 ug/mL in 0.2 M acetate buffer pH 5.6; HRP-labeled FNH3-8, ABTS
[27] = molecular target: H271-H296; test: ELISA; H271-H296 coated at 12 ug/mL; HRP-labeled FNH3-8, ABTS; blank subtracted
[28] = molecular target: H-296, a polypeptide comprising a heparin binding domain and a CS-1 domain of fibronectin (Homo sapiens (Human)) (UniProt P02751); test: ELISA as in Example 34; H-296 coated at 12.5 ug/mL in pH 5.6 acetate buffer; HRP-labeled FNH3-8

FNH3-8 antibody (manufactured by TAKARA BIO INC.) labeled with HRP
absorbance at 405 nm [1]: 0.392
absorbance at 405 nm [2]: 0.221
absorbance at 405 nm [3]: 2.02
405 nm (Found Value - Blank) [4]: 0.976
405 nm (Found Value - Blank) [5]: 0.56
405 nm (Found Value - Blank) [6]: 0.448
absorbance at 405 nm [7]: 0.732
absorbance at 405 nm [8]: 0.104
405 nm (Found Value - Blank) [9]: 0.991
absorbance at 405 nm [10]: 0.075
405 nm (Found Value - Blank) [11]: 0.186
405 nm (Found Value - Blank) [12]: 0.605
405 nm (Found Value - Blank) [13]: 0.603
absorbance at 405 nm [14]: 0.451
absorbance at 405 nm [15]: 0.131
405 nm (Found Value - Blank) [16]: 0.965
405 nm (Found Value - Blank) [17]: 0.81
405 nm (Found Value - Blank) [18]: 0.545
405 nm (Found Value - Blank) [19]: 0.609
405 nm (Found Value - Blank) [20]: 0.924
405 nm (Found Value - Blank) [21]: 0.878
405 nm (Found Value - Blank) [22]: 0.859
absorbance at 405 nm [23]: 0.08
absorbance at 405 nm [24]: 0.379
405 nm (Found Value - Blank) [25]: 0.742
absorbance at 405 nm [26]: 0.475
405 nm (Found Value - Blank) [27]: 0.639
absorbance at 405 nm [28]: 0.277
